Source: publication PMC6503762

Target: MSBI1.176 Rep WH1 domain (residues 1-135) (MSBI1.176 (bovine meat and milk factor DNA isolated from a brain sample of a human patient with multiple sclerosis))
Experiment: crystal structure; hanging-drop vapor diffusion at 18°C, 1:1 protein (5 mg/ml in 25 mM Tris-HCl pH 7.6, 300 mM NaCl) and 0.2 M magnesium acetate, 20% PEG 3350; S-SAD phasing; 1.53 Å; one dimer in the asymmetric unit

In the case of “MSBI1.176 Rep WH1 domain (residues 1-135) (domain or fragment)”, the stoichiometry N is reported as 2.
